Experimental data taken from US20260265385A1, “CD122 BINDING AGENTS AND METHOD OF USING SAME” (AnaptysBio, Inc., priority 2022, published 2026).

How the values were obtained:
[1] = target: human IL-2Rβ (CD122), full-length, on cells (human) (UniProt P14784); test: flow cytometry competition: antibody titrated against recombinant IL-2 (5 nM) binding to HEK293 cells expressing human IL-2Rβ and IL-2Rγ
[2] = target: human IL-2Rβ (CD122), full-length, on cells (human) (UniProt P14784); test: flow cytometry competition: antibody titrated against recombinant IL-15 (2 nM) binding to HEK293 cells expressing human IL-2Rβ and IL-2Rγ

Chain of human IL-2Rβ (CD122), full-length, on cells (human) (P14784 27-551): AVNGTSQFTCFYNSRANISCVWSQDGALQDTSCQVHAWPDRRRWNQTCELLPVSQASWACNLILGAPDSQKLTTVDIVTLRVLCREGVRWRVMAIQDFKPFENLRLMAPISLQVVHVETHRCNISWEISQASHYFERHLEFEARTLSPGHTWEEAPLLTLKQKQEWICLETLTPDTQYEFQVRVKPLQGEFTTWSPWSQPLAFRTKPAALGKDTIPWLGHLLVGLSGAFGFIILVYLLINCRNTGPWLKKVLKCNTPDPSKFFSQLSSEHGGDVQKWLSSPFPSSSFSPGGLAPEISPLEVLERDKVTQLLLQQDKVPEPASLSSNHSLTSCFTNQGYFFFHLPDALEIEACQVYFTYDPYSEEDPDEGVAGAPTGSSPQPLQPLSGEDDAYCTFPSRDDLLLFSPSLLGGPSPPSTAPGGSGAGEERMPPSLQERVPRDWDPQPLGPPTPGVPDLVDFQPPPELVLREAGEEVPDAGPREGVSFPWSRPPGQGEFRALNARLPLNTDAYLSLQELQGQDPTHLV

B1: APE14773.01 (anti-CD122 control ref ABC2) (antibody, from another filing, V domains shown)
VH: EVKLVESGGGLVQPGGSLRLSCATSGFTFSDFYMEWVRQPPGKRLEWIAASRNKANDYTTEYSASVKGRFIVSRDTSQSILYLQMNALRAEDTAIYYCARSYYRYDGMDYWGQGTSVTVSS
VL: QVVLTQSPVIMSASPGEKVTMTCSAISSVSYMYWYQQKPGSSPRLLIYDTSNLVSGVPVRFSGSGSGTSYSLTISRMEAEDAATYYCQQWNTYPYTFGGGTKLEIK
Question: For B1, which IC50 (read off the curve) [1] is on record?
Answer: The IC50 (read off the curve) was 1 nM.

Question: And the IC50 (read off the curve) [2]?
Answer: Its IC50 (read off the curve) is 0.9 nM.
